Reference: the supplement of paper PMC9112550, “Optimization of the antimicrobial peptide Bac7 by deep mutational scanning” (BMC Biology, 2022)

These sequences were tested on Escherichia coli TOP10 (assay: shrunken log2 fold change of peptide-encoding DNA abundance (4.5 h post-induction vs induction); higher = less antimicrobial activity (less host growth inhibition)). Conditions: time post-induction: 4.5 h; library: site-saturation at positions 5, 18, 19, 20.
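Also: peptides expressed intracellularly from a pBAD plasmid library in pooled LB shake-flask culture, induced with 0.3% L-arabinose, DNA abundance read by NGS, three biological replicates, DESeq2 with apeglm shrinkage.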

Row | Sequence | shrunken log2 fold change
1 | RRIRFRPPRLPRPRPRPTLYPRP | -0.189
2 | RRIRNRPPRLPRPRPRPTKKPRP | 0.0702
3 | RRIRWRPPRLPRPRPRPHGRPRP | 0.0589
4 | RRIRHRPPRLPRPRPRPADEPRP | 0.0084
5 | RRIRGRPPRLPRPRPRPPGGPRP | 1.18
6 | RRIRTRPPRLPRPRPRPQSDPRP | -0.0398
7 | RRIRMRPPRLPRPRPRPHAQPRP | -0.015
8 | RRIRYRPPRLPRPRPRPTAAPRP | 0.111
9 | RRIRLRPPRLPRPRPRPEFRPRP | 0.126
10 | RRIRGRPPRLPRPRPRPTDQPRP | 0.846
11 | RRIRRRPPRLPRPRPRPHSKPRP | -0.198
12 | RRIRLRPPRLPRPRPRPMLRPRP | 0.0543
13 | RRIRFRPPRLPRPRPRPGRTPRP | 0.301
14 | RRIRQRPPRLPRPRPRPRLWPRP | 0.504
15 | RRIRGRPPRLPRPRPRPSRGPRP | 0.605
16 | RRIRRRPPRLPRPRPRPTVAPRP | 0.699
17 | RRIRIRPPRLPRPRPRPIMHPRP | -0.252
18 | RRIRFRPPRLPRPRPRPHMLPRP | 0.798
19 | RRIRRRPPRLPRPRPRPCAYPRP | 0.0425
20 | RRIRSRPPRLPRPRPRPAWCPRP | 0.545

Row | Sequence | shrunken log2 fold change
21 | RRIRSRPPRLPRPRPRPGVSPRP | 0.119
22 | RRIRTRPPRLPRPRPRPKWKPRP | -0.0786
23 | RRIRFRPPRLPRPRPRPIITPRP | -0.5
24 | RRIRMRPPRLPRPRPRPQIVPRP | -0.163
25 | RRIRMRPPRLPRPRPRPKWFPRP | 0.275
26 | RRIRPRPPRLPRPRPRPVDTPRP | -0.592
27 | RRIRIRPPRLPRPRPRPYPCPRP | -0.028
28 | RRIRARPPRLPRPRPRPSDGPRP | 0.0321
29 | RRIRVRPPRLPRPRPRPQHEPRP | -0.245
30 | RRIRHRPPRLPRPRPRPRTCPRP | -0.0538
31 | RRIRQRPPRLPRPRPRPNVHPRP | -0.258
32 | RRIRVRPPRLPRPRPRPHMKPRP | -0.483
33 | RRIRERPPRLPRPRPRPSVRPRP | -0.148
34 | RRIRDRPPRLPRPRPRPFYNPRP | -0.732
35 | RRIRNRPPRLPRPRPRPDMKPRP | -0.423
36 | RRIRMRPPRLPRPRPRPFWKPRP | 0.072
37 | RRIRYRPPRLPRPRPRPFKCPRP | -0.135
38 | RRIRNRPPRLPRPRPRPGILPRP | -0.337
39 | RRIRLRPPRLPRPRPRPSCGPRP | -0.583
40 | RRIRNRPPRLPRPRPRPFVNPRP | -0.0775

Row | Sequence | shrunken log2 fold change
41 | RRIRTRPPRLPRPRPRPIDLPRP | -1.07
42 | RRIRHRPPRLPRPRPRPGLMPRP | -0.162
43 | RRIRFRPPRLPRPRPRPSPPPRP | 0.218
44 | RRIRTRPPRLPRPRPRPDTRPRP | -0.186
45 | RRIRMRPPRLPRPRPRPMMTPRP | 0.141
46 | RRIRMRPPRLPRPRPRPGAKPRP | 1.48
47 | RRIRKRPPRLPRPRPRPSKLPRP | 0.0104
48 | RRIRHRPPRLPRPRPRPWSAPRP | -0.547
49 | RRIRDRPPRLPRPRPRPYGVPRP | 0.00737
50 | RRIRNRPPRLPRPRPRPPNSPRP | -0.072
51 | RRIRWRPPRLPRPRPRPWGDPRP | 0.0345
52 | RRIRDRPPRLPRPRPRPKEVPRP | 0.174
53 | RRIRCRPPRLPRPRPRPDERPRP | -0.149
54 | RRIRNRPPRLPRPRPRPEGRPRP | 0.177
55 | RRIRMRPPRLPRPRPRPVTTPRP | 0.107
56 | RRIRIRPPRLPRPRPRPNQGPRP | 0.0325
57 | RRIRFRPPRLPRPRPRPCDSPRP | -0.0928
58 | RRIRTRPPRLPRPRPRPFGRPRP | 0.0376
59 | RRIRYRPPRLPRPRPRPQHVPRP | -1.14
60 | RRIRDRPPRLPRPRPRPVHYPRP | 0.0175
